Experimental data: patent US20060239998A1 (D COLLEN RESEARCH FOUNDATION VZW, published 2006)

Molecular target: human monoclonal antibody BO2C11, FVIII-specific IgG4kappa inhibitory antibody against the C2 domain
Assay: cell-based or functional assay

neutralisation of BO2C11 inhibitory activity (chromogenic assay): 50 % neutralisation at 1/8 BO2C11/Fab molar ratio
B1: Fab fragments of Ab 14C12 (Fab, V domains shown)
VH: EVQLQQSGPELVKPGASVKLSCKASGYTFTSSVMHWLKQKSGQGLEWIGYINPYNDGTKYNEKFTAKATLTSDKSSSTVYMELSGLTSEDFAVYYCARSGGLLRGYWYFDVWGAGTTVTVSS
VL: DLVLTQSPATLSVTPGDSVSLSCRASQDITNTLHWYHQKSHESPRLLIKYVSQSISGIPSRFSGSGSGTVFTLSINSVETEDFGVYFCQQSTSWPYTFGGGTKLEIKR
